The record followed here is patent publication US20150344570A1 (published 2015).

Positions count from the first letter of the chain named. Numbers in names are those of the source. Like-named read-outs stand apart in the source and are kept apart here.

For experiment [1], the target named is T1, FcγRIIIa F extracellular domain with C-terminal His tag (human, UniProt P08637 17-208).
T1 construct: extracellular domain; Soluble receptor, F158 allotype; also called FcgRIIIa F; FcgRIIIaF; not shown: His tag at the C terminus
T1 sequence (P08637 17-208): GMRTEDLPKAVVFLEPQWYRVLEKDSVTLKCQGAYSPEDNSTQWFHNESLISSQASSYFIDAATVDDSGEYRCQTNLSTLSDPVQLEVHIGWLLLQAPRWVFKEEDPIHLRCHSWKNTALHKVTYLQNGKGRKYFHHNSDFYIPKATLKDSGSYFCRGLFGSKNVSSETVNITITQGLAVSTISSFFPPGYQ
Briefly: SPR (Biacore), antibody captured on chip, soluble FcγR as analyte, 1:1 Langmuir fit. The protocol:
(§1) Specifically, H240-Hl134 (SEQ ID NO: 88) resulting from introduction of L234Y/L235Y/G236W/H268D/S298A into H240-Hl033 and H240-Kn132 (SEQ ID NO: 89) resulting from introduction of K326D/A330M/K334E into H240-Kn033 were constructed according to the method described in Reference Example 1.
(§2) Analysis of interaction between objective antibody and the FcγR was carried out using Biacore T100 (GE Healthcare), Biacore T200, Biacore A100, and Biacore 4000. HBS-EP+ (GE Healthcare) was used as the running buffer, and the measurement temperature was set to 25° C. Chips produced by immobilizing the antigen peptide by the amine coupling method to a Series S sensor Chip CM5 (GE Healthcare), chips produced by allowing preliminarily biotinylated antigen peptides to interact with and immobilize onto a Series S Sensor Chip SA (certified) (GE Healthcare), chips produced by immobilizing Protein L (ACTIGEN, BioVision) to Series S Sencor Chip CM5 (GE Healthcare), or chips produced by immobilizing Protein A/G (Thermo Scientific) to Series S Sencor Chip CM5 (GE Healthcare) were used. Antibodies of interest were captured onto these chips, and allowed to interact to each FcγR diluted with running buffer. To regenerate and repeatedly use the chip, the antibodies captured onto the chip were washed off by reacting 10 mM glycine-HCl, pH 1.5.
Background: In SPR one partner is held on a chip, and binding of the other changes the refractive index at the surface.

The target in experiment [2] is T2, FcγRIIIa V extracellular domain with C-terminal His tag (human, UniProt P08637 17-208).
T2 construct: extracellular domain; Soluble receptor, V158 allotype; also called FcgRIIIa V; FcgRIIIaV; not shown: His tag at the C terminus
T2 sequence (P08637 17-208 F176V): as the sequence (P08637 17-208) above, with F160V counted along it
The experiment is described as above. The protocol:
as §1, §2

Experiment [3] addresses T1, FcγRIIIa F extracellular domain with …. The description is as above. As for the experimental part: as §2
This is another data set of the same source.

Experiment [4] addresses T3, FcγRIIa H extracellular domain with C-terminal His tag (human, UniProt P12318 34-217).
T3 construct: extracellular domain; Soluble receptor, H131 allotype; also called FcgRIIa H; FcgRIIaH; not shown: His tag at the C terminus
T3 sequence (looked up): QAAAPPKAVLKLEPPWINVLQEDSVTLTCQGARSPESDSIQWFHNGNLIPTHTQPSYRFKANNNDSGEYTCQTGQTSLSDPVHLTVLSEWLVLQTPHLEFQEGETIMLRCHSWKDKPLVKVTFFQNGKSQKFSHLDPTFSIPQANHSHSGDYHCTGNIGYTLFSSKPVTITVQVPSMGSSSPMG
Described as above. The protocol: as §2

Experiment [5] concerns the target T4, FcγRIIa R extracellular domain with C-terminal His tag (human, UniProt P12318 34-217).
T4 construct: extracellular domain; Soluble receptor, R131 allotype; also called FcgRIIa R; FcgRIIaR; not shown: His tag at the C terminus
T4 sequence (looked up): T3 sequence (looked up) with H134R
The experiment is described as above. The protocol:
as §2

The target in experiment [6] is T2, FcγRIIIa V extracellular domain with …. The description is as above. As for the experimental part:
as §2
This is another data set of the same source.

Experiment [7] has as its target T5, FcγRIa extracellular domain with C-terminal His tag (human, UniProt P12314 16-292).
T5 construct: extracellular domain; Soluble receptor expressed in FreeStyle293 cells; used as analyte in Biacore; also called FcgRIa; FcgRI; not shown: His tag at the C terminus
The description is as above. The protocol: as §2

Experiment [8] deals with T6, FcγRIIb extracellular domain with C-terminal His tag (human, UniProt P31994 43-217).
T6 construct: extracellular domain; also called FcgRIIb; CD32B; not shown: His tag at the C terminus
T6 sequence (looked up): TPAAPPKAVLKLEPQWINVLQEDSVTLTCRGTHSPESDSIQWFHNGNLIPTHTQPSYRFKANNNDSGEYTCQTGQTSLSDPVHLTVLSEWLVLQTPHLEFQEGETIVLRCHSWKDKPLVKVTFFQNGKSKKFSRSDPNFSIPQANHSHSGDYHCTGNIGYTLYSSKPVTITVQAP
The description is as above. The protocol:
as §2

The target of experiment [9] is T7, FcgRIIIa F (human, UniProt P08637 17-208).
T7 construct: extracellular domain; polymorphic site made after J. Clin. Invest; also called FcγRIIIa F
Briefly: SPR (Biacore), antibody captured, FcgR as analyte. The protocol:
as §2
T7 sequence (P08637 17-208): as the sequence (P08637 17-208) above

For experiment [10], the target named is T8, FcgRIIa R (human, UniProt P12318 34-217).
T8 construct: extracellular domain; also called FcγRIIa R; FcγRIIa type R
T8 sequence (looked up): T3 sequence (looked up) with H134R
The experiment can be described thus: SPR (Biacore), antibody captured, FcgR as analyte. The protocol:
as §2

Experiment [11] addresses T9, FcgRIIb (human, UniProt P31994 43-217).
T9 construct: extracellular domain; also called FcγRIIb; CD32B
T9 sequence (looked up): T6 sequence (looked up)
The experiment can be described thus: SPR (Biacore), antibody captured, FcgR as analyte. The protocol:
as §2

For experiment [12], the target named is T10, FcgRIa (human, UniProt P12314 16-292).
T10 construct: extracellular domain; also called FcγRIa; FcγRI
The experiment can be described thus: SPR (Biacore), antibody captured, FcgR as analyte. As for the experimental part:
as §2
T10 sequence (P12314 16-292): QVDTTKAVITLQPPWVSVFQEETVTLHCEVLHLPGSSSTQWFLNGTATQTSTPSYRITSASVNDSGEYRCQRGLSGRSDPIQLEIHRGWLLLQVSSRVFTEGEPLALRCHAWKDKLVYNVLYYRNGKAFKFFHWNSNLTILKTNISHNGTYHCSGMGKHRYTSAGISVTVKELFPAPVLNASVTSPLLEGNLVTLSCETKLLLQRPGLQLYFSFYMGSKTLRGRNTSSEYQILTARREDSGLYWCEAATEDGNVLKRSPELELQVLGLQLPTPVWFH

In experiment [13] the target is T11, FcgRIIIa V (human, UniProt P08637 17-208).
T11 construct: extracellular domain; polymorphic site made after J. Clin. Invest; also called FcγRIIIa V
The experiment can be described thus: SPR (Biacore), antibody captured, FcgR as analyte. The protocol: as §2
T11 sequence (P08637 17-208 F176V limits assumed): as the sequence (P08637 17-208) above, with F160V counted along it

Experiment [14] concerns the target T12, FcgRIIa H (human, UniProt P12318 34-217).
T12 construct: extracellular domain; also called FcγRIIa H; FcγRIIa type H
T12 sequence (looked up): T3 sequence (looked up)
Briefly: SPR (Biacore), antibody captured, FcgR as analyte. The protocol: as §2

Experiment [15] deals with T13, FcgRIIa R (human, UniProt P12318 34-217).
T13 construct: extracellular domain; also called FcγRIIa R; FcγRIIa type R
T13 sequence (looked up): T3 sequence (looked up) with H134R
Briefly: SPR (Biacore); KD of GpH7-Kn033/GpH7-Hl033/GpL16-k0 for this FcγR divided by KD of this antibody (reference itself).

Experiment [16] concerns the target T14, FcgRIIIa F (human, UniProt P08637 17-208).
T14 construct: extracellular domain; also called FcγRIIIa F; FcγRIIIaF
The experiment is described as above.
T14 sequence (P08637 17-208): as the sequence (P08637 17-208) above

In experiment [17] the target is T15, FcgRIIa H (human, UniProt P12318 34-217).
T15 construct: extracellular domain; also called FcγRIIa H; FcγRIIa type H
T15 sequence (looked up): T3 sequence (looked up)
Described as above.

The target in experiment [18] is T16, FcgRIIb (human, UniProt P31994 43-217).
T16 construct: extracellular domain; also called FcγRIIb; CD32B
T16 sequence (looked up): T6 sequence (looked up)
Described as above.

Experiment [19] deals with T17, FcgRIa (human, UniProt P12314 16-292).
T17 construct: extracellular domain; also called FcγRIa; FcγRI
The experiment is described as above.
T17 sequence (P12314 16-292): as the sequence (P12314 16-292) above

The target of experiment [20] is T18, FcgRIIIa V (human, UniProt P08637 17-208).
T18 construct: extracellular domain; also called FcγRIIIa V; FcγRIIIaV
Described as above.
T18 sequence (P08637 17-208 F176V limits assumed): as the sequence (P08637 17-208) above, with F160V counted along it

T5 sequence (P12314 16-292): as the sequence (P12314 16-292) above

B1: H240-Kn061/H240-Hl071/L73-k0 (antibody, human IgG1, kappa)
heavy 1: QDQLVQSGAEVKKPGASVKVSCKASGFNIKDTYIQWVRQAPGQGLEWMGRIDPLRKQTKYREKFEGRVTITADTSTNTAYMELSSLRSEDTAVYYCVRSGREFDYWGQGTLVTVSSASTKGPSVFPLAPSSKSTSGGTAALGCLVKDYFPEPVTVSWNSGALTSGVHTFPAVLQSSGLYSLSSVVTVPSSSLGTQTYICNVNHKPSNTKVDKKVEPKSCDKTHTCPPCPAPEYYWGPSVFLFPPKPKDTLMISRTPEVTCVVVDVSDEDPEVKFNWYVDGVEVHNAKTKPREEQYNATYRVVSVLTVLHQDWLNGKEYKCKVSNKALPAPIEKTISKAKGQPREPQVCTLPPSRDELTKNQVSLWCLVKGFYPSDIAVEWESNGQPENNYKTTPPVLDSDGSFFLYSKLTVDKSRWQQGNVFSCSVMHEALHNHYTQKSLSLSP
heavy 2: QDQLVQSGAEVKKPGASVKVSCKASGFNIKDTYIQWVRQAPGQGLEWMGRIDPLRKQTKYREKFEGRVTITADTSTNTAYMELSSLRSEDTAVYYCVRSGREFDYWGQGTLVTVSSASTKGPSVFPLAPSSKSTSGGTAALGCLVKDYFPEPVTVSWNSGALTSGVHTFPAVLQSSGLYSLSSVVTVPSSSLGTQTYICNVNHKPSNTKVDKKVEPKSCDKTHTCPPCPAPELLGGPSVFLFPPKPKDTLMISRTPEVTCVVVDVSHEDPEVKFNWYVDGVEVHNAKTKPREEQYNSTYRVVSVLTVLHQDWLNGKEYKCKVSNDALPMPIEETISKAKGQPREPQVYTLPPSRCELTKNQVSLSCAVKGFYPSDIAVEWESNGQPENNYKTTPPVLDSDGSFFLVSKLTVDKSRWQQGNVFSCSVMHEALHNHYTQKSLSLSP
light: DIQMTQSPSSLSASVGDRVTITCRASQDIHKYIAWYQQKPGQAPRLLIQYTSTLQPGVPSRFSGSGSGTDYTFTISSLQPEDIATYYCLQYEQLRTFGGGTKVEIKRTVAAPSVFIFPPSDEQLKSGTASVVCLLNNFYPREAKVQWKVDNALQSGNSQESVTEQDSKDSTYSLSSTLTLSKADYEKHKVYACEVTHQGLSSPVTKSFNRGEC
notes: Heterodimerized anti-epiregulin IgG1, knobs-into-holes
One may read the Kd as the constant that tells how readily two partners part at equilibrium. Low values mean higher affinity, high ones lower affinity. Regarding B1, the Kd is 5.1 nM in [1]; 1.8 nM in experiment [2]; 5.1 nM in experiment [3]; 280 nM in experiment [4]; 350 nM in experiment [5]; 1.8 nM in experiment [6]. Besides, the results for the Kd in experiment [7] and in experiment [8] were 0.14 nM and 1200 nM, respectively.

B2: H240-Kn061/H240-Hl071/L73-k0 (antibody, human IgG1, kappa)
heavy 1: B1 heavy 1
heavy 2: B1 heavy 2
light: B1 light
notes: Heterodimerized: L234Y/L235Y/G236W/H268D/S298A in the knob chain, K326D/A330M/K334E in the hole chain
In the case of B2, the dissociation constant (Kd) with FcgRIIIa F [9] is 5.1 nM; with FcgRIIa R [10] it was 350 nM; with FcgRIIb [11], 1200 nM; in the experiment with FcgRIa [12], 0.14 nM; with FcgRIIIa V [13] it was 1.8 nM; with FcgRIIa H [14], 280 nM.

B3: GpH7-Kn033/GpH7-Hl033/GpL16-k0 (antibody, human IgG1, kappa)
heavy 1: not shown
heavy 2: not shown
light: DIVMTQSPLSLPVTPGEPASISCQASESLVHSNRNTYLHWYLQKPGQSPQLLIYKVSNRFSGVPDRFSGSGSGTDFTLKISRVEAEDVGVYYCSQNTHVPPTFGQGTKVEIERTVAAPSVFIFPPSDEQLKSGTASVVCLLNNFYPREAKVQWKVDNALQSGNSQESVTEQDSKDSTYSLSSTLTLSKADYEKHKVYACEVTHQGLSSPVTKSFNRGEC
notes: Anti-glypican-3 antibody; knobs-into-holes alone applied to G1d (knob chain Y349C/T366W; hole chain D356C/T366S/L368A/Y407V); also called Kn033/Hl033
Consider B3, for which the KD ratio with FcgRIIa R [15], with FcgRIIIa F [16], in the experiment with FcgRIIa H [17], in the experiment with FcgRIIb [18], with FcgRIa [19] and with FcgRIIIa V [20] was 1 fold throughout.
